Assay results taken from patent EP4725955A1, “PEPTIDE TARGETING C-MET, PHARMACEUTICAL COMPOSITION COMPRISING SAID PEPTIDE AND USE THEREOF” (Nanjing Anji Biotechnology Co., Ltd., priority 2023, dated 2025).
≈ marks a conversion by molar mass, not a printed value. Where a SMILES comes first, the peptide text is derived from it. Where no end group is shown, it is not given here. The star is where a group is joined. Paclitaxel(2'-O-succinyl) = CC(=O)O[C@H]1C(=O)[C@@]2(C)[C@H]([C@H](OC(=O)c3ccccc3)[C@]3(O)C[C@H](OC(=O)[C@H](OC(=O)CCC(=O)*)[C@@H](NC(=O)c4ccccc4)c4ccccc4)C(C)=C1C3(C)C)[C@]1(OC(C)=O)CO[C@@H]1C[C@@H]2O; FITC = O=C1OC2(c3ccc(O)cc3Oc3cc(O)ccc32)c2ccc(NC(=S)*)cc21; Acp = not defined here

How the values were obtained:
[1] = literature values; cited from earlier work
[2] = Solubility of drug and drug-peptide conjugate in water (supersaturated solution, HPLC standard curve); assay type: physicochemical
Description: The peak areas of the series standard solutions were detected via HPLC (mobile phase: 0.065% TFA water + 0.05% TFA; chromatographic column: YMC-TriartC18; wavelength: 220 nm), so as to construct a concentration-peak area standard curve, as shown in FIG. 13. In FIG. 13, the horizontal axis represents the concentration, and the longitudinal axis represents the peak area.
The peak area of the sample was detected via HPLC, and the solubility value of the sample in water was calculated by the concentration-peak area standard curve. Table 5 Solubility Value of Sample in Water

[3] = biological target: c-Met positive cell MKN-45 (Homo sapiens, UniProt P08581); assay: Flow cytometry detection of binding of FITC-labelled peptide to c-Met positive cell MKN-45; assay type: cell-based; details: for binding affinity to c-Met positive cell MKN45 compared with P1-AI: alanine scanning, FITC-labelled peptides 10 µM to 0.625 µM, FIG. 12; for affinity to c-Met positive cell MKN45 relative to CM7-1: comparison of EC50 with CM7-1, FITC-labelled peptides tested; for binding to c-Met positive cell MKN45, dose dependence: different peptide concentrations, flow cytometry
Description: MKN 45 cells cultured in a 1640 culture solution (Nanjing Senbeijia Biotechnology Co., Ltd.) were collected, and washed twice with pre-cooled PBS. 1 mL of 1% BSA solution was added into the washed cells, and then the above mixed system was placed on a rotary mixer (Lichen Technology Co., Ltd.) and incubated for 30 min at 4°C. Different concentrations of FITC-P1-AI, FITC-CM7-1, FITC-CM7-1.1, FITC-CM7-1.2, FITC-CM7-1.3, FITC-CM7-1.4, FITC-CM7-1.5 and FITC-CM7-1.6 peptide solutions were respectively added in the dark to obtain multiple groups, and then the mixtures were placed on the rotary mixer and incubated for 1 h at 4°C in the dark. After the incubation was completed, the mixed system of the cells was centrifuged for 5 min at 800 rpm, and then supernatant was discarded. The cells were washed twice with pre-cooled PBS, and the concentration of the cells was adjusted to 1×10^6 cells/mL using PBS. 3 parallel replicate wells were set up for cells in each group, with 0.5 mL prepared per sample; and a flow cytometer was used to detect the binding of the peptide to c-Met positive cell MKN-45, EC50 data and a binding curve were generated. […] Table 2 Binding affinity of peptide to MKN-45
MKN-45 cells cultured in a 1640 culture solution were collected, and washed twice with pre-cooled PBS 1 mL of 1% BSA solution was added into the washed cells, and then the above mixed system was placed on a rotary mixer and incubated for 30-60 min at 4°C. 10 µM of FITC-P1-AI peptide solution and FITC-CM7-1 were respectively added in the dark to form two groups, and the above mixed systems were placed on the rotary mixer and incubated for 1 h at 4°C in the dark. After the incubation was completed, the mixed system of the cells was centrifuged for 5 min at 800 rpm, and then supernatant was discarded. The cells were washed 1-2 times with pre-cooled PBS, and then the concentration of the washed cells was adjusted to 1×10^6 cells/mL by using PBS. 3 parallel replicate wells were set up for cells in each group, with 0.5 mL prepared per sample; and a flow cytometer was used to detect the binding of the peptide to c-Met positive cells.
The MKN-45 cells cultured in a 1640 culture solution were collected, and washed twice with pre-cooled PBS. […] After the incubation was completed, the mixed system of the cells was centrifuged for 5 min at 800 rpm, and then supernatant was discarded. The cells were washed 1-2 times with pre-cooled PBS, and then the concentration of the washed cells was adjusted to 1×10^6 cells/mL by using PBS. 3 parallel replicate wells were set up for cells in each group, with 0.5 mL prepared per sample; and a flow cytometer was used to detect the binding of the peptide to the c-Met positive cell MKN-45. […] Table 4 Sequences of Peptides

[4] = system: MKN-45 subcutaneous xenograft tumor; assay: Living imaging of tissue distribution in MKN-45 subcutaneous xenograft tumor mice; assay type: in vivo, nude mice; details: 5 mg/kg via tail vein, tumor about 400 mm^3, FIG. 11
Description: In MKN-45 subcutaneous xenograft tumor mice (nude mice were purchased from Changzhou Kavens Laboratory Animal Co., Ltd), 5X10^6 MKN45 cells were subcutaneously implanted into nude mice; and when the volume of the tumor was about 400 mm^3, 5 mg/kg Cy5-P1-AI was injected via a tail vein, and its tissue distribution was analyzed using a living imaging instrument. […] In the figure, a circle area is a tumor site.

[5] = Solubility detection of peptide in ultrapure water (visual); assay type: physicochemical
Description: 13.4 mg of CM7-1 and 15 mg of P1-AI were respectively weighed and dissolved using ultrapure (UP) water (prepared using Youpu Pure Water/Ultrapure Water Manufacturing System (UPR-II-10T)).

[6] = system: human hepatic stellate cell LX-2; assay: Specificity: flow cytometry binding of peptide to LX-2 cells that barely express c-Met; assay type: cell-based; details: concentration of up to 10 µM, cells barely expressing c-Met, FIG. 8
Description: Human hepatic stellate cells LX-2 cultured in a 1640 culture solution were collected, and washed twice with pre-cooled PBS. 1 mL of 1% BSA solution was added into the washed cells, and then the above mixed system were placed on a rotary mixer and incubated for 30 min at 4°C. 10 µM of FITC-P1-AI peptide solution and FITC-CM7-1 were respectively added in the dark to form two groups, and the above mixed systems were placed on the rotary mixer and incubated for 1 h at 4°C in the dark. After the incubation was completed, the mixed system of the cells was centrifuged for 5 min at 800 rpm, and then supernatant was discarded. The cells were washed twice with pre-cooled PBS, and the concentration of the cells was adjusted to 1×10^6 cells/mL using PBS. 3 parallel replicate wells were set up at concentrations of 1 µM, 5 µM and 10 µM for cells in each group, with 0.5 mL prepared per sample; and a flow cytometer was used to detect the binding of the peptide to LX-2 cells.

c-Met protein = c-Met protein (UniProt P08581 25-932, limits assumed); assay: microscale thermophoresis (MST), FITC-peptide with titrated c-Met protein
[7] = biological target: T1, c-Met on c-Met positive human gastric cancer cell MKN-45 (human, UniProt P08581 25-1390); assay: flow cytometry, FITC-peptide (0.625-10 µM) on MKN-45 cells
T1 construct: whole, on cells; also called hepatocyte growth factor receptor; HGFR

[8] = biological target: T1, c-Met on c-Met positive human gastric …; assay: flow cytometry, FITC-peptide on c-Met positive MKN-45 cells

c-Met protein, sequence (P08581 25-932 limits assumed): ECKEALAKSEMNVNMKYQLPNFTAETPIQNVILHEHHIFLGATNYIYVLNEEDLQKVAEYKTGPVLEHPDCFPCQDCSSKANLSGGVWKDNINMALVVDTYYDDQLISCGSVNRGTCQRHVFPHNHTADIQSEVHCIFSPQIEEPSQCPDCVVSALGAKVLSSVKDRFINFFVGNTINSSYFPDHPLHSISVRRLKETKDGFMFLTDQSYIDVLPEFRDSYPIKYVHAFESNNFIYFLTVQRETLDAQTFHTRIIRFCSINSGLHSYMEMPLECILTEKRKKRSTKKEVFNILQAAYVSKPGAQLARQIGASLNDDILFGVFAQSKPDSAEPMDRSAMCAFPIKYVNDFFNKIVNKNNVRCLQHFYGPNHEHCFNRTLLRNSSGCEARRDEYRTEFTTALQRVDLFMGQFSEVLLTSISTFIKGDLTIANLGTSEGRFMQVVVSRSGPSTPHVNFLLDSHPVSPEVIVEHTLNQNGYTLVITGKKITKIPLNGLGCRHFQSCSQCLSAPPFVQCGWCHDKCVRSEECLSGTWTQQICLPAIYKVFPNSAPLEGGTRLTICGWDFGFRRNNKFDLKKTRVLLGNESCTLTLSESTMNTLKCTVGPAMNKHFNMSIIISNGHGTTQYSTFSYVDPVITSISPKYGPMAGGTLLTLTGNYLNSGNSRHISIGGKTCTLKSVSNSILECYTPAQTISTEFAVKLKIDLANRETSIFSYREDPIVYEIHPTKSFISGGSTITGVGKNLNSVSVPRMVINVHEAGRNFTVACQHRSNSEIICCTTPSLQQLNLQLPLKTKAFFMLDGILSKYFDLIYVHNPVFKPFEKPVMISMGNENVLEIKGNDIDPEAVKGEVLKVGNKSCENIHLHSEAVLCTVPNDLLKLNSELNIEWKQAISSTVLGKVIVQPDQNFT
T1 sequence (P08581 25-1390): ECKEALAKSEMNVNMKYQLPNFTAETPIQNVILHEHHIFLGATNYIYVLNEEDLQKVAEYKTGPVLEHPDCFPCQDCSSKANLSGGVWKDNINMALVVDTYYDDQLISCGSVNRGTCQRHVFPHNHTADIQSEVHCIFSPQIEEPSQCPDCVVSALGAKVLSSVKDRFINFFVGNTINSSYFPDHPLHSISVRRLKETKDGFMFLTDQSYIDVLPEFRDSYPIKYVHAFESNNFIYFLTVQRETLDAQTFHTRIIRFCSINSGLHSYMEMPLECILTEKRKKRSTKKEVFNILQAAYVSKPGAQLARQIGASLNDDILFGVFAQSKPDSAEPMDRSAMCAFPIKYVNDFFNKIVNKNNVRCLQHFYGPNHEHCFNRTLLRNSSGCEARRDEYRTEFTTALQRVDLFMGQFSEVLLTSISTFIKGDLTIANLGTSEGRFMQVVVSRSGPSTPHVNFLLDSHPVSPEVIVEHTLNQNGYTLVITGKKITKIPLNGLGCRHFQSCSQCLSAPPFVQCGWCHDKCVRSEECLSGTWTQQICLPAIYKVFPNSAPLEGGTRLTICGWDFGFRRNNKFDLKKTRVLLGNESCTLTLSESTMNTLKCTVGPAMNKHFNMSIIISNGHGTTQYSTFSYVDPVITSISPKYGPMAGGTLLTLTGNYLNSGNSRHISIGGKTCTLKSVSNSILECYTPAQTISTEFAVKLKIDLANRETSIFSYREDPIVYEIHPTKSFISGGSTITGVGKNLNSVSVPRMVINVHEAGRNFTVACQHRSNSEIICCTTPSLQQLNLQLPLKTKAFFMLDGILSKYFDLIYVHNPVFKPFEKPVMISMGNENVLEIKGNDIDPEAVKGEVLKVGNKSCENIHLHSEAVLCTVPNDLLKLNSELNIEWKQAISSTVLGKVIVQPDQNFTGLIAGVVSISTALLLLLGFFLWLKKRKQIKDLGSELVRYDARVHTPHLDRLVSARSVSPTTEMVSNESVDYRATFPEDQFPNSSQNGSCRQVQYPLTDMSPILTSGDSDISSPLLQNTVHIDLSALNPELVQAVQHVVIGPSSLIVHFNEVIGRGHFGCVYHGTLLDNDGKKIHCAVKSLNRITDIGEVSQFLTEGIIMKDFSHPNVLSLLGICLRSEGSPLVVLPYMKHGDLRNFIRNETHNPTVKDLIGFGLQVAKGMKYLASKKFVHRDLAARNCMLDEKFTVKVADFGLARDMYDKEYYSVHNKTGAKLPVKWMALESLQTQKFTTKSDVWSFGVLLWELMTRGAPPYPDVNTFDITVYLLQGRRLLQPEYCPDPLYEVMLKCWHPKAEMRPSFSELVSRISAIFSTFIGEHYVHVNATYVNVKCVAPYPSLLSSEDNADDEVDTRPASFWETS
c-Met positive cell MKN-45, sequence (P08581 25-1390): as above

## CCc1c2c(nc3ccc(OCC(=O)N4CCCCC4)cc13)-c1cc3c(c(=O)n1C2)COC(=O)[C@]3(O)CC [7-ethyl-10-[2-oxo-2-(piperidinyl)ethoxy]camptothecin]
[1]
  solubility in water: about 6.22 µg/mL

## CC[C@@]1(O)C(=O)OCc2c1cc1n(c2=O)Cc2cc3ccccc3nc2-1 [CPT, camptothecin]
[2]; thermodynamic from solid
  solubility at 15 min: 0.084 µg/mL (≈ 0.241 µM)

## CC(=O)O[C@@]12CO[C@@H]1C[C@H](O)[C@@]1(C)C(=O)[C@H](O)C3=C(C)[C@@H](OC(=O)[C@H](OC(=O)CCC(=O)N[C@@H](CCCNC(=N)N)C(=O)N[C@@H](CO)C(=O)N4CCC[C@H]4C(=O)N[C@@H](Cc4ccc(O)cc4)C(=O)N[C@@H](C)C(=O)N[C@@H](CC(N)=O)C(=O)N[C@@H](CO)C(=O)O)[C@@H](NC(=O)OC(C)(C)C)c4ccccc4)C[C@@](O)([C@@H](OC(=O)c4ccccc4)[C@H]21)C3(C)C [DOC-P1-AI]
[2]
  Solubility increasing fold of drug-peptide conjugate compared with drug: 1.62×10^5 fold

## CC(=O)O[C@H]1C(=O)[C@@]2(C)[C@H]([C@H](OC(=O)c3ccccc3)[C@]3(O)C[C@H](OC(=O)[C@H](OC(=O)CCC(=O)N[C@@H](CCCNC(=N)N)C(=O)N[C@@H](CO)C(=O)N4CCC[C@H]4C(=O)N[C@@H](Cc4ccc(O)cc4)C(=O)N[C@@H](C)C(=O)N[C@@H](CC(N)=O)C(=O)N[C@@H](CO)C(=O)O)[C@@H](NC(=O)c4ccccc4)c4ccccc4)C(C)=C1C3(C)C)[C@]1(OC(C)=O)CO[C@@H]1C[C@@H]2O [PTX-P1-AI] ({Paclitaxel(2'-O-succinyl)}-RSPYANS-OH; N-terminus assumed)
[2]
  Solubility increasing fold of drug-peptide conjugate compared with drug: 46.33 fold

## ASPYANS [P1-AI-1]
[3]
  binding affinity to c-Met positive cell MKN45 compared with P1-AI: reduced

## Cy5-RSPYANS [Cy5-P1-AI]
[4]
  tissue distribution by living imaging: enriched in cancer sites highly expressing c-Met

## DAIIANN [CM7-1.2]
[3]
  affinity to c-Met positive cell MKN45 relative to CM7-1: significantly increased affinity
  binding to c-Met positive cell MKN45, dose dependence: dose-dependent

## DQAIANN [CM7-1.3]
[3]
  affinity to c-Met positive cell MKN45 relative to CM7-1: significantly increased affinity
  binding to c-Met positive cell MKN45, dose dependence: dose-dependent

## DQIAANN [CM7-1.4]
[3]
  affinity to c-Met positive cell MKN45 relative to CM7-1: increased affinity

## DQIIANA [CM7-1.6]
[3]
  affinity to c-Met positive cell MKN45 relative to CM7-1: increased affinity

## DQIIANN [CM7-1, DQIIANN, reference compound]
[5]; concentration 6 mM
  state in water: completely cloudy state

## FITC-RSPYANS (not fully specified; FITC label) [FITC-P1-AI]
[6]
  binding to LX-2 cells: barely binds

## RAPYANS [P1-AI-2]
[3]
  binding affinity to c-Met positive cell MKN45 compared with P1-AI: reduced

## RSAYANS [P1-AI-3]
[3]
  binding affinity to c-Met positive cell MKN45 compared with P1-AI: reduced

## RSPAANS [P1-AI-4]
[3]
  binding affinity to c-Met positive cell MKN45 compared with P1-AI: increased binding affinity
[3]; conclusion of Example 9
  binding affinity to c-Met compared with CM7-1: superior

## RSPYANS [P1-AI, RSPYANS]
[5]; concentration 19 mM
  state in water: clear solution

B1: FITC-P1-AI (FITC-RSPYANS) (peptide)
peptide: {FITC-Acp}-RSPYANS
modifications: reading uncertain
notes: Synthetic 7-mer made by solid-phase synthesis; Molecular weight 1296.36
c-Met protein
  Kd: 41.1 nM
  fold increase of affinity against CM7-1: 30.9 fold

B2: FITC-P1-AI-2 (FITC-RAPYANS) (peptide)
peptide: {FITC}-RAPYANS
notes: Alanine variant of P1-AI at position 2
[7]
  binding result: binds

B3: FITC-P1-AI-4 (FITC-RSPAANS) (peptide)
peptide: {FITC}-RSPAANS
notes: Alanine variant of P1-AI at position 4
[7]
  binding result: binds

B4: FITC-P1-AI-6 (FITC-RSPYAAS) (peptide)
peptide: {FITC}-RSPYAAS
notes: Alanine variant of P1-AI at position 6; also called P1-Al-6
[7]
  binding result: binds

B5: FITC-P1-AI-1 (FITC-ASPYANS) (peptide)
peptide: {FITC}-ASPYANS
notes: Alanine variant of P1-AI at position 1
[7]
  binding result: binds

B6: FITC-P1-AI-3 (FITC-RSAYANS) (peptide)
peptide: {FITC}-RSAYANS
notes: Alanine variant of P1-AI at position 3
[7]
  binding result: binds

B7: FITC-CM7-1 (FITC-DQIIANN) (peptide)
peptide: {FITC}-DQIIANN
notes: tested as the FITC-labelled form; Molecular weight 1289.36
[8]
  EC50: 9500 nM
c-Met protein
  Kd: 1270 nM

B8: FITC-CM7-1.1 (FITC-AQIIANN) (peptide)
peptide: {FITC}-AQIIANN
notes: Alanine variant of CM7-1 at position 1
[8]
  EC50: 2070 nM

B9: FITC-CM7-1.6 (FITC-DQIIANA) (peptide)
peptide: {FITC}-DQIIANA
notes: Alanine variant of CM7-1 at position 7
[8]
  EC50: 5050 nM

B10: FITC-CM7-1.5 (FITC-DQIIAAN) (peptide)
peptide: {FITC}-DQIIAAN
notes: Alanine variant of CM7-1 at position 6
[8]
  EC50: 15200 nM

B11: FITC-CM7-1.3 (FITC-DQAIANN) (peptide)
peptide: {FITC}-DQAIANN
notes: Alanine variant of CM7-1 at position 3
[8]
  EC50: 45.6 nM

B12: FITC-CM7-1.4 (FITC-DQIAANN) (peptide)
peptide: {FITC}-DQIAANN
notes: Alanine variant of CM7-1 at position 4
[8]
  EC50: 5370 nM

B13: FITC-CM7-1.2 (FITC-DAIIANN) (peptide)
peptide: {FITC}-DAIIANN
notes: Alanine variant of CM7-1 at position 2
[8]
  EC50: 1880 nM
